Source: US20220235344A1, “TRYPSIN VARIANTS WITH IMPROVED ENZYMATIC PROPERTIES” (BIOPHARMA TRANSLATIONSINSTITUT DESSAU FORSCHUNGS GMBH, priority 2018, published 2022)
Several values for one entry are separate records, joined by “and”; a condition that tells them apart may be missing. Identical values can stand only once.

Key:
Format in all cases: biochemical
[1] = tested on: R1-YRAH-R2 (Bz-PGGYRAHAG-OH) / H-RAHAK(DNP)-OH; assay: Zinc dependence of the transamidation reaction, A2C8 and K7F11, YRAH
Protocol: (§1) Model transamidation reactions were performed in a solution containing 15 to 250 μM acyl donor, 2 eq. of the corresponding acyl acceptor, varying concentrations of trypsin variant, 100 mM HEPES/NaOH pH 7.8, ±0.1 mM ZnC12, 100 mM NaCl, 10 mM CaCl2) at 30° C. Acyl donor and acyl acceptor had the same amino acids in P1′-P3′ position, e.g. Bz-[…]+H-RAHAK-OH or Bz-[…]+H-RKKAK-OH. Variations are indicated. The acyl acceptor could be equipped with a 2,4-Dinitrophenyl group (DNP) at the side chain of the terminal lysine, e.g. H-RAHAK(DNP)-OH or H-RKKAK(DNP)-OH. The reactions were started by the addition of enzyme. To record the time course of product formation and/or for kinetic evaluation of the reaction several aliquots of the reaction mixture were quenched with 25% (v/v) acetic acid at distinct time points within up to 4 hours. The composition of the reaction mixture was analyzed by UPCL with method I or II, depending on the absence (method 1) or presence (method II) of a 2,4-dinitrophenyl group within the acyl acceptor (see example 1). Measurements were performed as duplicates and errors were less than 5%.

[2] = target: T1, Bz-PGGYRAHAG-OH (acyl donor) / H-RAHAK(DNP)-OH (acyl acceptor) (Rattus norvegicus, UniProt P00763, D194K/K66E/Y45H/Y65H); assay: Maximum product yield of transamidation (Table 7); settings: Zinc ions (100 μM): yes; two equivalents of acyl acceptor and 250 μM acyl donor
T1 construct: made in house; host or cells: Pichia pastoris X-33
T1 sequence (P00763 24-246 Y45H/Y65H/K66E/D194K): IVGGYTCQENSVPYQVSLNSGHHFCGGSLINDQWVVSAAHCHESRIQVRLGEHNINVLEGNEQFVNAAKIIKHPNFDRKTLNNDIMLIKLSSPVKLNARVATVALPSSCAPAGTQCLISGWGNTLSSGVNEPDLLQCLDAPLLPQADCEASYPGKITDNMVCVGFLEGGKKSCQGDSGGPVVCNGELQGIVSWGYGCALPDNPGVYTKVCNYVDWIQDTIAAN
Protocol: as §1

[3] = target: T2, Bz-PGGYRAHAG-OH (acyl donor) / H-RAHAK-OH (acyl acceptor) (Rattus norvegicus, UniProt P00763, D194K/K66E/Y45H/Y65H); assay: Model transamidation at high and low substrate concentrations, Trypsiligase II; settings: for product yield (%) / kcat, AL^app (mkat/mol) / kcat, AL^app/kcat, HL^app / kcat, HL^app (mkat/mol): 0.1 mM ZnCl2
T2 construct: monomeric enzyme species (about 24 kDa); made in house; host or cells: Pichia pastoris X-33 (pPICZalphaA, secreted)
T2 sequence (P00763 24-246 Y45H/Y65H/K66E/D194K): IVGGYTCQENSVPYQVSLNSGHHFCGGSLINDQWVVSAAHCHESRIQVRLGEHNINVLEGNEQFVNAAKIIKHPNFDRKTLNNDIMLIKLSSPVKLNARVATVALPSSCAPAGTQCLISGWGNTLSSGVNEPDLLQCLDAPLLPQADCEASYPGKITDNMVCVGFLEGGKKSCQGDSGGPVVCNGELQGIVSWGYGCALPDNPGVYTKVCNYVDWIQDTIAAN
Protocol: as §1
The suitability of variant A2C8 and K7F11 as transamidases was further investigated in comparison to the native Trypsiligase II. Therefore the enzymatic parameters for the catalyzed transamidation reaction were determined by a model transamidation reaction using peptide substrates with the preferred recognition motive. In addition the model transamidation reaction was performed at high (250 μM) and low (15 μM) substrate concentrations to check, whether the new biocatalysts could also efficiently catalyze the desired reaction at low substrate concentration, which is a crucial requirement for the modification of therapeutic proteins. […] It was assumed that an improved transamidation activity is reached by introducing mutations which improve the affinity of the biocatalyst for the nucleophilic peptide and/or reduce its hydrolysis activity. Therefore corresponding experimental data describing both parameters for the native Trypsiligase II as well as variant A2C8 were determined.

[4] = R1-YRAH-R2, 100 μM acyl donor, 200 μM acyl acceptor, absence of zinc ions

| Molecule | dependence for zinc ions ([1]; A2C8: substrates with YRAH and YRKH sequence, K7F11: YRAH substrate only) | kcat, AL^app + Zn^2+ (mkat/mol) ([1]; R1-YRAH-R2, 100 μM acyl donor, 200 μM acyl acceptor, 2 μM trypsin variant, 0.1 mM ZnCl2) | product yield + Zn^2+ (%) ([1]; R1-YRAH-R2, 100 μM acyl donor, 200 μM acyl acceptor, 0.1 mM ZnCl2) | kcat, AL^app − Zn^2+ (mkat/mol) [1, 4] [mkat/mol] | product yield − Zn^2+ (%) [1, 4] [%] | product yield (%) [2] [%] | product yield (%) ([3]; [Substrate] 15 μM Bz-PGGYRAHAG-OH, 30 μM H-RAHAK-OH) | kcat, AL^app (mkat/mol) ([3]; [Substrate] 15 μM) | kcat, AL^app/kcat, HL^app ([3]; [Substrate] 15 μM) | kcat, HL^app (mkat/mol) ([3]; [Substrate] 15 μM) | product yield (%) ([3]; [Substrate] 250 μM Bz-PGGYRAHAG-OH, 500 μM H-RAHAK-OH) | kcat, AL^app (mkat/mol) ([3]; [Substrate] 250 μM) | kcat, AL^app/kcat, HL^app ([3]; [Substrate] 250 μM) | kcat, HL^app (mkat/mol) ([3]; [Substrate] 250 μM) | turnover rate of hydrolysis relative to aminolysis ([3]; substrate concentration 15 μM) |
| --- | --- | --- | --- | --- | --- | --- | --- | --- | --- | --- | --- | --- | --- | --- | --- |
| A2C8: Trypsiligase II + H40F, A55A, R96E, K97D, L99F, N143E, E151Y, S190V, Q192A, S214G, G219Q, A221T (protein) IVGGYTCQENSVPYQVSLNSGHFFCGGSLINDQWVVSAAHCHESRIQVRLGEHNINVLEGNEQFVNAAKIIKHPNFDEDTFNNDIMLIKLSSPVKLNARVATVALPSSCAPAGTQCLISGWGETLSSGVNYPDLLQCLDAPLLPQADCEASYPGKITDNMVCVGFLEGGKKVCAGDSGGPVVCNGELQGIVGWGYQCTLPDNPGVYTKVCNYVDWIQDTIAAN | no dependence for zinc ions | 9.46 | 53.3 | 14.51 | 50.4 |  |  |  |  |  |  |  |  |  |  |
| Trypsiligase II (trypsin variant Y39H/Y59H/K60E/D189K) (protein) IVGGYTCQENSVPYQVSLNSGHHFCGGSLINDQWVVSAAHCHESRIQVRLGEHNINVLEGNEQFVNAAKIIKHPNFDRKTLNNDIMLIKLSSPVKLNARVATVALPSSCAPAGTQCLISGWGNTLSSGVNEPDLLQCLDAPLLPQADCEASYPGKITDNMVCVGFLEGGKKSCQGDSGGPVVCNGELQGIVSWGYGCALPDNPGVYTKVCNYVDWIQDTIAAN |  |  |  |  |  | 18.1 | 3% and 3.2% | 0.33 | 0.1 | 2.84 | 17% and 17.3% | 14.40 | 0.9 | 16.00 | tenfold higher turnover rate |
